In PMC13066552 (Nature Communications, 2026):

Key:
[1] = molecular target: Bpa 31-146 (Mycobacterium tuberculosis) (UniProt P9WKX3); assay: NMR titration
native MS = molecular target: the molecule itself; assay: native MS
[2] = molecular target: the molecule itself; assay: methyl-TROSY NMR spectra compared

DNA-binding domain of human Telomeric Repeat-binding Factor 1 (residues 378-430) (domain or fragment)
Kd [1]: 1500 nM

B1: Mycobacterium tuberculosis bacterial proteasome activator Bpa, full-length wild type (natural protein)
chain: MVIGLSTGSDDDDVEVIGGVDPRLIAVQENDSDESSLTDLVEQPAKVMRIGTMIKQLLEEVRAAPLDEASRNRLRDIHATSIRELEDGLAPELREELDRLTLPFNEDAVPSDAELRIAQAQLVGWLEGLFHGIQTALFAQQMAARAQLQQMRQGALPPGVGKSGQHGHGTGQYL
stoichiometry N (native MS): 2 subunits

B2: Bpa 31-146 (domain or fragment)
chain: DSDESSLTDLVEQPAKVMRIGTMIKQLLEEVRAAPLDEASRNRLRDIHATSIRELEDGLAPELREELDRLTLPFNEDAVPSDAELRIAQAQLVGWLEGLFHGIQTALFAQQMAARA
stoichiometry N [2]: 12 subunits
